The values that follow come from US20080214468A1 (UNIVERSITY OF VIRGINIA PATENT FOUNDATION, published 2008).

Where no end group is shown, it is not given here.

This assay addresses Vimentin from bovine aortic endothelial cells (bovine, UniProt P48616 2-466). As to the kind of experiment: affinity chromatography of BAEC cell fractions on immobilized peptide. As to the method: Membrane and cytosol fractions from human bone marrow endothelial cells and bovine aortic endothelial cells were prepared and used to identify the components from within these fractions that bind to the peptides using affinity chromatography). […] Cell surface nucleolin is present at higher concentrations in actively dividing cells and is down regulated in cells when they become quiescent. Nucleolin is the apparent cell surface receptor of E-coli intimin-gamma. Cell bound intimin has been proposed to trigger a host cell response similar to the extension of filipodia when cells bind to laminin. […] Table 3 provides a summary of peptide-binding partners (putative receptors) identified by affinity chromatography of cell lysates.

Vimentin from bovine aortic endothelial cells, sequence (P48616 2-466 limits assumed): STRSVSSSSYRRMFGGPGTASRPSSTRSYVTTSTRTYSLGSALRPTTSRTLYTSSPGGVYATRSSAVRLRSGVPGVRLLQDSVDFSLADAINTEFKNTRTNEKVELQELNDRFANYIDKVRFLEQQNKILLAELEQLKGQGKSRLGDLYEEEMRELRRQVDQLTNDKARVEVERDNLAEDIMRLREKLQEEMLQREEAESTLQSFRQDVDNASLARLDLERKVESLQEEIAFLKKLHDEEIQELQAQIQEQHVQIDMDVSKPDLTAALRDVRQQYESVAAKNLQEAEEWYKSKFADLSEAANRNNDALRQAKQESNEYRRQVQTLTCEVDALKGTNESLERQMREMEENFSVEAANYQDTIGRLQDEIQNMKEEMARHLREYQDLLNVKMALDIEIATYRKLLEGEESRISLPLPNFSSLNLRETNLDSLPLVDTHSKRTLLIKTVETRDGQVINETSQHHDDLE

As for SYSQMDPPRSLPGGGS (also: biotinylated, position not given here, 12-mer with the C-terminal GGGS linker) [peptide R8 (SEQ ID NO:14)], the binding result is listed as “binds”.
Under QRSWTLDSALSMGGGS (also: biotinylated, position not given here, 12-mer with the C-terminal GGGS linker) [peptide L12 (SEQ ID NO:7)] stands “binds”.
